Ends that are not written are not given here. * marks the point of attachment. 5‑TAMRA = CN(C)c1ccc2c(-c3ccc(C(=O)*)cc3C(=O)[O-])c3ccc(N(C)C)cc3[o+]c2c1; Ahx = NCCCCCC(=O)O

For one data set, the target named is T1, AspN protease (Elizabethkingia meningoseptica, UniProt Q47899).
T1 sequence (Q47899 92-443): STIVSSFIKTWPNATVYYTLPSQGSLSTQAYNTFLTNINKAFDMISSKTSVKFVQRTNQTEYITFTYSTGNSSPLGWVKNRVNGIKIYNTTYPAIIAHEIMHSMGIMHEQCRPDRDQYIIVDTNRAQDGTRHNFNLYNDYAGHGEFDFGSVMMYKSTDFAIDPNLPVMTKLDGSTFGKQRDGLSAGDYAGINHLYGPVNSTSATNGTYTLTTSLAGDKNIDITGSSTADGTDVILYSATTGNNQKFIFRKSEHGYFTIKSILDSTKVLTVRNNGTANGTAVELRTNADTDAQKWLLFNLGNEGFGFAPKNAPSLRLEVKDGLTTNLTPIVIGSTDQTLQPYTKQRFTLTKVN
Kind of data set: in vitro. Conditions: isolated enzyme.

In data set [1] the target is T2, TNKS2 ARC4 (Homo sapiens, UniProt Q9H2K2).
T2 construct: GST (cleaved yes); made in house; host or cells: E. coli C41(DE3)
T2 sequence (Q9H2K2 488-649): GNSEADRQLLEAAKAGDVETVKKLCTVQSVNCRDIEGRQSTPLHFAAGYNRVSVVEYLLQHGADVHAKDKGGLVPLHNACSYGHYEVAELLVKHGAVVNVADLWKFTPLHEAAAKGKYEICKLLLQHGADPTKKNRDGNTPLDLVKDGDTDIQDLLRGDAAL
Kind of data set: Direct fluorescence polarization, TNKS2 ARC4. Format: binding. Conditions: TAMRA-labeled peptides; n.d. = not detectable; read-out: Kd TNKS2 ARC4 (Direct FP). Here is the method:
Fluorescence polarization (FP) assays were performed in 96-well half area black microplates (Corning) on a CLARIOstar microplate reader (BMG labtech) using excitation filter 540–20 nm, dichroic mirror LP 566 nm, and emission filter 590–20 nm. All peptides were dissolved in water as stock solutions. For direct FP assays, the stock concentrations of the TAMRA-labeled peptides were determined based on the 5-TAMRA absorbance at 556 nm (extinction coefficient ε = 89,000 M^–1 cm^–1) measured on a NanoDrop 2000 (Thermo Scientific) and verified by amino acid analysis (Department of Biochemistry, University of Cambridge). TNKS2 ARC4 (488–649) or TNKS1 ARC2–3 (315–662) was diluted 2-fold serially in the assay buffer (50 mM HEPES pH 7.5, 300 mM NaCl, 2 mM DTT, 0.05% (v/v) Tween 20) for a 12-point titration curve in triplicate. The diluted TAMRA-labeled peptide (20 nM, 50 μL) was mixed with the serially diluted TNKS2 ARC4 or TNKS1 ARC2–3 (40–0 μM, 50 μL) in each well and incubated for 30 min at 25 °C before the measurement. Data were analyzed on GraphPad Prism 5.0, and the dissociation constant, Kd, was determined using the following equation assuming the ratio between the concentration of the bound and that of the total TAMRA-labeled peptide is proportional to the fluorescence polarization [drawing 1] where FP is the fluorescence polarization, B is the minimum FP, T is the maximum FP, L0 is the total concentration of TAMRA-labeled peptide, P0 is the total concentration of protein, and Kd is the dissociation constant.
Background: Polarisation of emitted light reports the rotation of a fluorescent probe.

Another data set has as its target T3, TNKS1 ARC2-3 (Homo sapiens, UniProt O95271).
T3 construct: His6 (cleaved yes); made in house; host or cells: E. coli C41(DE3)
T3 sequence (O95271 315-662): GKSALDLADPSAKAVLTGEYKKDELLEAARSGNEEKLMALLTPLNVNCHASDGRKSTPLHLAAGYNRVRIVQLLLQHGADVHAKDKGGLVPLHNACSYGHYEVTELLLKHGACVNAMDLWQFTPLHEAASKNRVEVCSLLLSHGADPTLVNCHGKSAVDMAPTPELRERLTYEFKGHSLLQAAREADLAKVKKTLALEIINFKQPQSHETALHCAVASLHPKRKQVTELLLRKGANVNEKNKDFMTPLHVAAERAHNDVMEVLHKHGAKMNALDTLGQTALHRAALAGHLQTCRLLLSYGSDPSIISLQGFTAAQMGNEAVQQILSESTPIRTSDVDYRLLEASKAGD
Kind of data set: Isothermal titration calorimetry, TNKS1 ARC2-3. Conditions: unlabeled peptides and Axin proteins. Format: binding. On the procedure: (§1) All ITC experiments were performed on a MicroCal iTC200 (GE Healthcare) at 25 °C. TNKS2 ARC4 (488–649), TNKS1 ARC2–3 (315–662), and Axin1 fragments were dialyzed overnight in PBS and 0.5 mM TCEP. Unlabeled peptides were used in the experiments. The peptide was diluted from the stock solution using the same dialysis buffer, and the effect of buffer dilution was accounted for when preparing TNKS samples. TNKS2 ARC4 (160–280 μM) or TNKS1 ARC2–3 (60–150 μM) was titrated into the sample cell containing the peptide (5–15 μM) or Axin1 fragments (8–12 μM) with an initial injection of 0.2 μL over 0.4 s followed by 19 injections of 2 μL over 4 s with a spacing of 60 s, except for TNKS2 ARC4 and Axin1 fragments for which the spacing was 70 s. Control experiments were performed using the same settings as above except that the cell was filled with dialysis buffer. Data were fitted with nonlinear regression using a one-site binding model from Origin 7.0 (MicroCal, Inc.).[90]

The target of data set [2] is T2, TNKS2 ARC4. Kind of data set: Isothermal titration calorimetry, TNKS2 ARC4. Conditions: unlabeled peptides and Axin proteins. Format: binding. Here is the method:
as §1
Background: ITC needs no label: the signal is the heat of the interaction.

Data set [3] relates to Wnt-activated HEK 293T cells. Kind of data set: TOPFLASH dual-luciferase reporter assay. It counts as cell-based. Conditions: unlabeled peptides. On the procedure:
A dual-luciferase reporter (DLR) assay in Wnt-activated HEK 293T cells was used to determine the ability of the peptides to modulate β-catenin levels and suppress Wnt transcription. […] Treatment of HEK 293T cells with an increasing concentration of unlabeled peptide cp4n2m3c-Antp (containing the penetratin sequence on the linker) led to a dose-dependent decrease in Wnt pathway reporter activity with an IC50 around 50 μM (Figure 8). […] Moreover, treatment with non-cell-penetrating peptides pep1 or cp4n2m3c had no effect on Wnt reporter activity, nor did treatment with cp4n1m3c-Antp (a cell-penetrating version of the non-binding peptide cp4n1m3c) (Table S2), thereby satisfying these specificity controls.
HEK 293T were grown in Dulbecco’s Modified Eagles Medium (DMEM) supplemented with 10% fetal calf serum. Wnt pathway activity was induced by treating cells with 20 mM LiCl (or KCl as control) or conditioned media obtained from L-cells expressing Wnt3A for 6 h. […]
For TOPFLASH reporter assays, 100 ng of TOPFLASH plasmid and 10 ng of CMV-Renilla plasmid (as internal control) were used to transfect cells in 24-well plates. […] Relative luciferase values were obtained from triplicate samples (from two independent experiments) by dividing the firefly luciferase values (from TOPFLASH) by the Renilla luciferase values (from CMV-renilla), and standard deviations were calculated.
For orientation: In a reporter assay the amount or activity of a reporter protein is the signal.

Data set [4] deals with T4, human tankyrase 1 ankyrin repeat clusters 2-3 (TNKS1 ARC2-3, residues 315-662) (human, UniProt O95271 315-662).
T4 sequence (looked up): T3 sequence (O95271 315-662)
Kind of data set: fluorescence polarisation; competition: Axin1 fragment diluted 2-fold serially against TAMRA-labeled pep1 (20 nM) with TNKS1 ARC2-3 (1.2 uM); PBS, 0.05% Tween 20; 30 min, 25 C. Conditions: both partners purified.

For data set [5], the target named is T5, human tankyrase 2 ankyrin repeat cluster 4 (TNKS2 ARC4, residues 488-649) (human, UniProt Q9H2K2 488-649).
T5 sequence (looked up): T2 sequence (Q9H2K2 488-649)
Kind of data set: ITC; TNKS2 ARC4 (160-280 uM) or TNKS1 ARC2-3 (60-150 uM) titrated into the cell with unlabeled peptide (5-15 uM) or Axin1 fragment (8-12 uM); PBS, 0.5 mM TCEP; 25 C; one-site model; stoichiometry = TNKS per peptide or Axin1. Conditions: both partners purified.

In data set [6] the target is T4, human tankyrase 1 ankyrin repeat …. The description is as above. Conditions: both partners purified.
In data set [7] the target is T5, human tankyrase 2 ankyrin repeat …. Kind of data set: fluorescence polarisation; competition: unlabeled peptide or Axin1 fragment diluted 2-fold serially against TAMRA-labeled pep1 (20 nM) with TNKS2 ARC4 (3 uM); PBS, 0.05% Tween 20; 30 min, 25 C. Conditions: both partners purified.
The target in data set [8] is T6, TNKS2 ARC4 (488–649) (human, UniProt Q9H2K2 488-649).
T6 sequence (looked up): T2 sequence (Q9H2K2 488-649)
Kind of data set: fluorescence polarisation; direct FP; TAMRA-labeled peptide (20 nM, 50 μL) mixed with serially diluted TNKS2 ARC4 (40–0 μM, 50 μL); 50 mM HEPES pH 7.5, 300 mM NaCl, 2 mM DTT, 0.05% Tween 20; 30 min at 25 °C. Conditions: both partners purified.

In data set [9] the target is T6, TNKS2 ARC4 (488–649). Kind of data set: pull-down; GST-Axin1 1–80 on glutathione beads incubated with TNKS2 ARC4 (89 μM), washed, then incubated 0.5 h at room temperature with unlabeled peptide (0–200 μM); wash buffer 50 mM Tris·HCl pH 8.0, 500 mM NaCl, 2 mM DTT; SDS-PAGE, Coomassie, densitometry. Conditions: both partners purified.
Data set [10] has as its target T6, TNKS2 ARC4 (488–649). Kind of data set: fluorescence polarisation; competitive FP; T-pep1 (20 nM) with TNKS2 ARC4 (3 μM) as tracer, unlabeled peptide serially diluted; PBS, 0.05% Tween 20; 30 min at 25 °C. Conditions: both partners purified.

Regarding `CN(C)c1ccc2c(c1)Oc1cc(N(C)C)ccc1C21OC(=O)c2cc(C(=O)NCCCCCC(=O)N[C@@H](CCCNC(=N)N)C(=O)N[C@@H](CCC(=O)O)C(=O)N[C@H]3CCn4cc(nn4)CCCc4cn(nn4)CC[C@@H](C(=O)N[C@@H](CCC(=O)O)C(N)=O)NC(=O)CNC(=O)[C@H](CC(=O)O)NC(=O)CNC3=O)ccc21` [T-cp4n2m3], the share remaining (in general, the share of the starting amount still present when the sample was taken) at 4.5 h, 400 μM at AspN protease is approximately 100%. Moreover, at TNKS2 ARC4 [1], the dissociation constant Kd (as a rule, the concentration at which binding is half-saturated) came to 600 ± 10 nM.
Ac-REAGDGEE-NH2 [pep1]: the “Stoichiometry (ITC), TNKS1 ARC2-3” value at TNKS1 ARC2-3 is reported as 0.9 ± 0.01. Besides, the equilibrium dissociation constant (Kd) at TNKS1 ARC2-3 (25 °C, read-out: Kd (nM) to TNKS1 ARC2-3 (ITC)) was 290 ± 30 nM. In addition, on TNKS2 ARC4 [2], the “Stoichiometry (ITC), TNKS2 ARC4” value is on record as 1.0 ± 0.004. Further, in data set [3], the “effect on Wnt reporter activity” value is recorded as “no effect”.
For the molecule MNIQEQGFPLDLGASFTEDAPRPPVPGEEGELVSTDPRPASYS (domain or fragment, UniProt O15169 1-43, looked up) [human Axin1 residues 1-43], the Kd in [4] came to 560 ± 40 nM; in data set [5], 2120 ± 160 nM; in data set [6], 830 ± 80 nM; in data set [7], 3680 ± 180 nM. Besides, the stoichiometry N (commonly a count of units in the complex or per binding partner) is 1 ± 0.02 in data set [5] and 1 ± 0.01 in data set [6].
Regarding {5‑TAMRA-Ahx}-REAGDGEE [T-pep1 (TAMRA-Ahx-REAGDGEE)], in the data set with TNKS2 ARC4 (488–649) [8], binding was put at a Kd of 800 ± 100 nM.
As for Ac-REAGDGEE [pep1], the IC50 (as a rule, the concentration that inhibits the measured activity by half) with TNKS2 ARC4 (488–649) [9] was approximately 40000 nM. In addition, in the data set with TNKS2 ARC4 (488–649) [10], the Kd turned out to be 1200 ± 100 nM.

These data come from PMC5358875 (Journal of the American Chemical Society, 2017).
